We go through one molecule from patent publication US20180002412A1 (UNIVERSITY OF CONNECTICUT, published 2018).

For one experiment, the target named is T1, Recombinant human HSP90β (human, UniProt P08238 1-724, limits assumed).
T1 construct: Bought protein; also called heat shock protein HSP 90-beta; HSP90AB1
As to the kind of experiment: immunoprecipitation of recombinant HSP90β, immunoblot with commercial HSP90 antibody. On the procedure:
FIGS. 4 A and B show a validation of the target antigens of HCAb1 and HCAb2. […] Immunoprecipitation of HSP90 was performed from cytosolic and plasma membrane (PM) fractions using HCAb2. The immunoprecipitated HSP90 was detected using a commercial HSP90 antibody. […] HCAb1 and HCAb2 (5 μg each) were used to immunoprecipitate recombinant HSP90β (1 μg) resuspended in either 1% Triton X-100+0.1% SDS or 1% Triton X-100+1% SDS buffers. The immunoprecipitated HSP90β protein was detected using a commercial HSP90 antibody. Equal amounts of HCAb1 and HCAb2 were pulled down as detected by anti-mouse IgG antibody.
The list of proteins identified for HCAb2 contained both HSP90α and HSP90β isoforms with HSP90β being the highest scoring protein (Table 2). […] Of the 45 peptides, 3 peptides were unique to HSP90α, while 15 peptides were unique to HSP90β and the remaining 27 peptides were common to both the isoforms. […] To test this, we used recombinant human HSP90β (highest scoring protein from Table 2) to determine the specificity of HCAb2. HCAb1 and HCAb2 were examined for their ability to immunoprecipitate HSP90β and the presence of HSP90β detected using the commercial HSP90 antibody. […] This interaction was abolished when the SDS concentration was elevated from 0.1% to 1%. […]

The target in a further experiment is T2, Clathrin heavy chain 1 (UniProt Q00610 2-1675).
T2 construct: Endogenous protein, immunoprecipitated from cell lysate and stained in permeabilized MCF7 cells; also called CLTC
T2 sequence (Q00610 2-1675 limits assumed): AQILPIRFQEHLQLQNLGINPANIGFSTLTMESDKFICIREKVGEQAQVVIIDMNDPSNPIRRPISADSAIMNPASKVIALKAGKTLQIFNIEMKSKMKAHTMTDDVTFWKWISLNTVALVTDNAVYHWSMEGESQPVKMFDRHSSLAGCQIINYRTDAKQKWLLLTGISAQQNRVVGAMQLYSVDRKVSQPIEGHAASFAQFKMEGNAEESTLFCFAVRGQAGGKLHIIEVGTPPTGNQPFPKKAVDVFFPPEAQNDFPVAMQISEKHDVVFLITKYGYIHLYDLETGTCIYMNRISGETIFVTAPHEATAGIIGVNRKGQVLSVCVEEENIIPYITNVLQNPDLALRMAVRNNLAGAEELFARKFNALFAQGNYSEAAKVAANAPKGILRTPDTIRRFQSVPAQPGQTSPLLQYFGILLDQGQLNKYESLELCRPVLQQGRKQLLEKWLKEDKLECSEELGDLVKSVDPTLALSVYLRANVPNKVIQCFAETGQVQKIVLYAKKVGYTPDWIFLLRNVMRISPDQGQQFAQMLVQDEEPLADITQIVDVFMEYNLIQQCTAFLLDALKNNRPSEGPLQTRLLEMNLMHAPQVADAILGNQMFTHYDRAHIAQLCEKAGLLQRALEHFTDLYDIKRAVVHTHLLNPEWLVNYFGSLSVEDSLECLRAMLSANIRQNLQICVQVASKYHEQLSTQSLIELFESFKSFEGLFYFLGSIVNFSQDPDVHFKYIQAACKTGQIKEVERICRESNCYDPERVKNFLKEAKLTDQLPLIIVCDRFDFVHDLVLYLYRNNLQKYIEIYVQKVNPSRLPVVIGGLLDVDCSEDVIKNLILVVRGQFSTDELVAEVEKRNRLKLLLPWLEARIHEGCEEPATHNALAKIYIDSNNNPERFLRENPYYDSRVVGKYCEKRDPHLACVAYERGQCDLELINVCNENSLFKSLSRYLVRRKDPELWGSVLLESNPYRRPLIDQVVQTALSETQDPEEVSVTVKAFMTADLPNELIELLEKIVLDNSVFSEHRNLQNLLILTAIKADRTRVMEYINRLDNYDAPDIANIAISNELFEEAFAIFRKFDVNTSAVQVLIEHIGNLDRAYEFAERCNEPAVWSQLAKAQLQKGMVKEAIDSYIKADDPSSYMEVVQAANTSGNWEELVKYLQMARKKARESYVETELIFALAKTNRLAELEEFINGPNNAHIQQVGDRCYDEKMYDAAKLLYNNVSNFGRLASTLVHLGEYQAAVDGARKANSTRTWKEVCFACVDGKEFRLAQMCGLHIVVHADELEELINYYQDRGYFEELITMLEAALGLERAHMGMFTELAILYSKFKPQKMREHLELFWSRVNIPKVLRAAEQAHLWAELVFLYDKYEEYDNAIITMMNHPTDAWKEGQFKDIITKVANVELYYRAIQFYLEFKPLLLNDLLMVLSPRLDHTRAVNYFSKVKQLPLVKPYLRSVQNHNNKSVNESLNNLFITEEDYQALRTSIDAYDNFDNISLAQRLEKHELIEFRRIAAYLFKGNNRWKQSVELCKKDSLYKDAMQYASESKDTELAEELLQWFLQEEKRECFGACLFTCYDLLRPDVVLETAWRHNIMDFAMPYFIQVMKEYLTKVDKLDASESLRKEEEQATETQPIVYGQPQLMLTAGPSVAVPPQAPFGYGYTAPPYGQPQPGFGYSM
As to the kind of experiment: immunoprecipitation from MDA-MB-231 1% Triton X-100 lysate, gel band identified by LC-MS/MS. On the procedure:
FIGS. 3 A and B show immunoprecipitation of respective target antigens by HCAb1 and HCAb2. 20 μg of HCAb1 and HCAb2 were used to immunoprecipitate the target antigens from 1% Triton X-100 (A) or 1% Triton X-100+0.1% SDS (B) MDA-MB-231 lysates. The immunoprecipitated proteins were run on a reducing SDS-PAGE gel and the proteins in the gel were stained with SYPRO® Ruby stain. * indicates the specific band for HCAb1 (A) and HCAb2 (B).
In order to determine the antigens recognized by the HCAbs, we performed immunoprecipitation of the antigens followed by protein identification using mass spectrometry. We chose MDA-MB-231 cell lysates since the respective target antigens for both HCAb1 (FIG. 1L) and HCAb2 (FIGS. 1C, 1I and 1O) were abundant in MDA-MB-231 cells. The immunoprecipitated proteins were run on a reducing SDS-PAGE gel and visualized using SYPRO® Ruby stain. […] Furthermore, these buffer conditions were unfavorable for HCAb1 to immunoprecipitate the band seen previously (FIG. 3A) in the buffer lacking SDS.
The specific gel bands (*) observed in FIGS. 3A and 3B were excised and the tryptic peptides were analyzed by mass spectrometry. Peptides identified from the analysis were used to search the SwissProt database to obtain the list of target proteins. Tables 1 and 2 list the top five proteins identified from the HCAb1 and HCAb2 immunoprecipitated bands, respectively. […]

Experiment [1] addresses T3, HSP90 (endogenous, from MDA-MB-231 cells and MDA-MB-231 xenograft tumor lysates) (human, UniProt P08238 2-724).
T3 construct: The isoform is not resolved in these experiments; HSP90α (P07900) may also be present; also called cell surface HSP90
As to the kind of experiment: immunoprecipitation from MDA-MB-231 xenograft tumor lysates, immunoblot with commercial HSP90 antibody. The procedure:
RIPA lysates of xenograft tumor pieces were used for immunoprecipitation with 15 μg of HCAb1 and HCAb2. Immunoprecipitated HSP90β protein was detected on an immunoblot using commercial HSP90 antibody. […] Equal amounts of HCAb1 and HCAb2 were pulled down as detected by anti-mouse IgG antibody.
Xenograft tumor pieces were placed in 500 μL of 1% Triton™ X-100+0.1% SDS/PBS lysis buffer supplemented with 0.2 mM sodium orthovanadate and fresh protease inhibitor cocktail (1:100) and homogenized using polytron homogenizer for 30 sec −1 min on ice. Homogenates were spun at 14,000 rpm for 20 min at 4° C. and supernatants were used for immunoprecipitation.
We also wanted to determine if HCAb2 can bind to HSP90 from the xenograft tumor lysates. Xenograft tumor pieces were homogenized and incubated with exogenous HCAb1 and HCAb2. Immunoprecipitated proteins were detected using the commercial HSP90 antibody. […] In summary, we observed that HCAb2 bound preferentially to a small population of MDA-MB-231 xenograft tumor cells in comparison to the normal mouse tissues and also pulled down HSP90 from xenograft tumor lysates.

T3 sequence (P08238 2-724 limits assumed): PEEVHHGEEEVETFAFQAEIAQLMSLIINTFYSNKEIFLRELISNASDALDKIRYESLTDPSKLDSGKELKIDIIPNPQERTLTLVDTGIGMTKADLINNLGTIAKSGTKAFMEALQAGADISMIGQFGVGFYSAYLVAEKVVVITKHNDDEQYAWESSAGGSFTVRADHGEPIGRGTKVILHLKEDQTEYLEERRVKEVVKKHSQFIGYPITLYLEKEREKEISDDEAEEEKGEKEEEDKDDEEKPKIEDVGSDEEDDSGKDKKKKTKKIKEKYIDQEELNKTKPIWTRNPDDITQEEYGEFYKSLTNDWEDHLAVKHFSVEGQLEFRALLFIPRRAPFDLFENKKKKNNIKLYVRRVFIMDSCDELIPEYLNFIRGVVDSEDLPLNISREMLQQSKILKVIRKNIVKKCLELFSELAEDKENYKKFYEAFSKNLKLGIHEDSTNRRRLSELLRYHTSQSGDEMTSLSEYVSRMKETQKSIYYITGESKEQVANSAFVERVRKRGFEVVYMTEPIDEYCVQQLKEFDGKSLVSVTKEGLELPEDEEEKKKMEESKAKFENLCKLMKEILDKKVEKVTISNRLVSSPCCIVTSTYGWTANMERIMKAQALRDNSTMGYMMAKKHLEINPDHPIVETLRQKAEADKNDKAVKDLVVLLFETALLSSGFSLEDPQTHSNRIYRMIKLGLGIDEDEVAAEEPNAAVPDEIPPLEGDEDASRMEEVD
T1 sequence (P08238 whole entry): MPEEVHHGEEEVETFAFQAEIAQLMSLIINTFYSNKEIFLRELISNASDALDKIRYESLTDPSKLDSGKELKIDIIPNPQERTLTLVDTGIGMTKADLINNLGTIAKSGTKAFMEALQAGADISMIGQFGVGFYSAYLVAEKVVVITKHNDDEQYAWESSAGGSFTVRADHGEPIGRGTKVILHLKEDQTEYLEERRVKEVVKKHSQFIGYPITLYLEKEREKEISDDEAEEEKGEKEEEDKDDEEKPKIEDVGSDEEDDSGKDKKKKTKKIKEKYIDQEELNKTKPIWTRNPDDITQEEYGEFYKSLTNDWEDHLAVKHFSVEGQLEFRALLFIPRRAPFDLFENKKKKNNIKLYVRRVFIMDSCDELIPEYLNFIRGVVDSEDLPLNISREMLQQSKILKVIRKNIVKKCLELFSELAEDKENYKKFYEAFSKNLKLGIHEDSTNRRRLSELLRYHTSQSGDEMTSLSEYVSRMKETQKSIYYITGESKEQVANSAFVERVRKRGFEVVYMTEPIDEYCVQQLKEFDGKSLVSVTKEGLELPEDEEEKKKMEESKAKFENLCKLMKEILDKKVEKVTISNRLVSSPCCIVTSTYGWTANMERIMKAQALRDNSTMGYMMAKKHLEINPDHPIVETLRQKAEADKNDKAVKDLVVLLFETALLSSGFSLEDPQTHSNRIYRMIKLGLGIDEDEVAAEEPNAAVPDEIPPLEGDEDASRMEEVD

B1: HCAb1 (Fc fusion)
heavy: QVQLVQSGGGLVQPGGSLRLSCAASGFTFSSYAMSWVRQAPGKGLEWVSAISGSGGSTYYADSVKGRFTISRDNSKNTLYLQMNSLRAEDTAVYYCARQEGQWLVQIDYWGQGTLVTVSS
notes: Human VH fused to the mouse Fc domain, no light chain, bivalent; It served as the control antibody for HCAb2; also called heavy chain antibody 1; not shown: mouse Fc domain from vector pCMV6-AC-FC-S (OriGene), with any junction residues encoded by the PCR primers
For the molecule B1, the binding result with Recombinant human HSP90β is “no binding (tested: 1 µg HSP90β)”; with Clathrin heavy chain 1, “binds”; in experiment [1], “no binding (tested: 15 µg of HCAb1)”.
